The data set addresses T1, FOXA2-DBD without wing 2 (human, UniProt Q9Y261 157-239).
T1 sequence: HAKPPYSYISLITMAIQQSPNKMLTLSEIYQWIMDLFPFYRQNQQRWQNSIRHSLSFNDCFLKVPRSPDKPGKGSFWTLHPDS
As to the kind of experiment: ITC.

B1: DBE2 (Daf-16 family binding element 2) (dsDNA)
DNA 1: TGCAAAATGTAAACAAGACT
DNA 2: AGTCTTGTTTACATTTTGCA
The molecule B1 yielded a Kd of 3.5 ± 0.3 µM.

The record behind these values is publication PMC5614898.
